Biological target: flu-pTyr (gp130-derived phosphopeptide) (Homo sapiens)

B1: STAT3 127-711, P40763 (protein)
chain: GQANHPTAAVVTEKQQMLEQHLQDVRKRVQDLEQKMKVVENLQDDFDFNYKTLKSQGDMQDLNGNNQSVTRQKMQQLEQMLTALDQMRRSIVSELAGLLSAMEYVQKTLTDEELADWKRRQQIACIGGPPNICLDRLENWITSLAESQLQTRQQIKKLEELQQKVSYKGDPIVQHRPMLEERIVELFRNLMKSAFVVERQPCMPMHPDRPLVIKTGVQFTTKVRLLVKFPELNYQLKIKVCIDKDSGDVAALRGSRKFNILGTNTKVMNMEESNNGSLSAEFKHLTLREQRCGNGGRANCDASLIVTEELHLITFETEVYHQGLKIDLETHSLPVVVISNICQMPNAWASILWYNMLTNNPKNVNFFTKPPIGTWDQVAEVLSWQFSSTTKRGLSIEQLTTLAEKLLGPGVNYSGCQITWAKFCKENMAGKGFSFWVWLDNIIDLVKKYILALWNEGYIMGFISKERERAILSTKPPGTFLLRFSESSKEGGVTFTWVEKDISGKTQIQSVEPYTKQQLNNMSFAEIIMGYKIMDATNILVSPLVYLYPDIPKEEAFGKYCRPESQEHPEADPGSAAPYLKTKFI
Binder B1 has a Kd of 0.06 µM.

Reference: article PMC7294595
